Patent US20020037840A1 (GENETICS INSTITUTE, published 2002)

T1: full length form of human PSGL-1 (human, UniProt Q14242 42-412)
T1 construct: whole, on cells; Expressed whole in COS cells and precipitated from the cell lysate with the biotinylated anti-PSGL-1 antibody 2G3; also called P-selectin glycoprotein ligand; CD162
T1 sequence (looked up): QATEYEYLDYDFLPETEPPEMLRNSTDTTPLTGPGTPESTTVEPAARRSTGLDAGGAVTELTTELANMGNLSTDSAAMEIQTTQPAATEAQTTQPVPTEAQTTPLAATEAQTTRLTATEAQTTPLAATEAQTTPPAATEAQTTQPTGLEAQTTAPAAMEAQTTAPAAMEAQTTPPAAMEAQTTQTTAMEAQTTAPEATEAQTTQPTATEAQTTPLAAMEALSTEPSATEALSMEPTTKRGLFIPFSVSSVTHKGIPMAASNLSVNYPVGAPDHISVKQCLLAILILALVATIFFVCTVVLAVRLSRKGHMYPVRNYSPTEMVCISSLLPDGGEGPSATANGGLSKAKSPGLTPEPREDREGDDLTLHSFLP

B1: T7-tagged truncated SLIC-1 protein comprising amino acid residues 1-88 (other)
chain: MASMTGGQQMGMASPEHPGSPGCMGPITQCTARTQQEAPATGPDLPHPGPDGHLDTHSGLSSNSSMTTRELQQYWQNQKCRWKHVKLLFEIASARIEER
notes: also called T7SLIC-1AA88; encoded by PED.T7U5AA88
B2: T7-tagged truncated SLIC-1 protein comprising amino acid residues 1-160 (other)
chain: MASMTGGQQMGMASPEHPGSPGCMGPITQCTARTQQEAPATGPDLPHPGPDGHLDTHSGLSSNSSMTTRELQQYWQNQKCRWKHVKLLFEIASARIEERKVSKFVVYQIIVIQTGSFDNNKAVLERRYSDFAKLQKALLKTFREEIEDVEFPRKHLTGNFAEEMICERRRA
notes: Made with a linker; also called T7SLIC-1AA160; encoded by pED.T7U5AA160

Target: T1, full length form of human PSGL-1
Experiment: co-immunoprecipitation from COS cell lysates with anti-PSGL-1 antibody 2G3, anti-T7 Western blot
Description: COS cells were transfected with T7-tagged forms of SLIC-1 as described in Example 3. Vector pMT-PL85A (Genetics Institute) was included in a subset of samples to transiently overexpress the full length form of human PSGL-1. Cell lysis was carried out as described above in 900 μL/dish of lysis buffer consisting of 20 mM Tris-HCl, pH 7.4, 137 mM NaCl, 0.05% Triton-X and protease inhibitors (Hildt, E and Oess, S J 1999 J. Exp. Med. 189(11): 1707-1714). A small volume of cleared cell lysate was used for Western Blotting to detect overexpressed protein in the whole cell lysate and for spectrophotometric measurement of the protein content. A volume of 300 μL of each lysate was used for co-immunoprecipitation studies with either 2.5 μg of biotinylated monoclonal mouse anti-PSGL-1 antibody (antibody 2G3, Genetics Institute) or a biotinylated control antibody (SIGMA). The samples were agitated at 4° C. for 5 hours, and immuncomplexes were precipitated with streptavidin agarose beads (Pierce) under the same conditions for 1 hour. […] The presence of T7-tagged SLIC-1 protein in the samples was detected by Western blot analysis using an anti-T7 Horse Radish Peroxidase LumiBlot Kit (Novagen) according to the manufacturer's instructions.

| Binder | binding result |
| --- | --- |
| B1 | no binding |
| B2 | no binding |
